Test results from patent US20240327455A1, “HIGH-AFFINITY SUPRAMOLECULAR POLYMERS FOR BINDING-TRIGGERED ANTIBODY PRECIPITATION AND PURIFICATION” (The Johns Hopkins University, priority 2021, published 2024).
≈ marks a conversion by molar mass, not a printed value. One block for each compound: values may come before it. Peptide text beside a SMILES is read from it. * marks the point of attachment. Lauroyl = CCCCCCCCCCCC(=O)*

Key:
[1] = CMC measurement with Nile Red; type: physicochemical; details: ligand molecules in PBS
Procedure: CMC measurement. The CMCs of the ligand molecules in PBS were determined using Nile Red, a hydrophobic dye that undergoes changes in both fluorescence intensity and emission wavelength (a blue-shift) upon partition into the hydrophobic domains of supramolecular assemblies. Nile Red was initially dissolved in acetone at 20 μM and 10 μl aliquots were loaded into several centrifuge tubes. After the acetone evaporated under room temperature. 500 μl fresh ligand solutions in PBS at various concentrations were added into the centrifuge tubes containing dry Nile Red and aged overnight for assembly. Fluorescent spectra of Nile Red were then monitored by a Fluorolog fluorometer (Jobin Yvon, Edison, NJ, USA) with fixed excitation wavelength at 560 nm; emission spectra were monitored at 580-720 nm. The ratio of the emission intensity at 635 nm (emission maximum of Nile red in a hydrophobic environment) to that at 660 nm (emission maximum of Nile red in an aqueous environment) was then plotted against the tested concentrations to obtain a transition curve, and the CMC value was determined by the intersection of the two fitting lines.

[2] = Self-assembly and TEM imaging (filament diameter); type: physicochemical; details: self-assembled in PBS pH 7.4; mean±SD (n=30)
Procedure: Self-Assembly, Co-Assembly, and TEM Imaging. For self-assembly, filler or ligand molecules were dissolved in PBS (20 mM sodium phosphate, 150 mM sodium chloride, pH 7.4) to reach a final concentration of 2.5 mM or 400 μM, respectively, and aged for 24 hours at room temperature. To construct co-assembled IFs, filler and ligand molecules were pretreated with hexafluoroisopropanol (HFIP) to eliminate any pre-existing nanostructures that could be possibly formed during the synthesis and purification process. After HFIP evaporation, filler and ligand molecules were dissolved in PBS (20 mM sodium phosphate, 150 mM sodium chloride, pH 7.4) to reach desired concentrations and aged for 24 hours at room temperature. 10 μl stock of each sample solution was then spotted on carbon film coated copper grids with 400 square mesh (Electron Microscopy Sciences, Hatfield, PA, USA) and the excess was removed with filter paper to leave a thin film of sample on the grid. After letting the sample dry for 5 minutes, 10 μl 2% uranyl acetate was added to the sample grid, and the excess was removed after 30 seconds. All samples were dried for at least three hours before imaging. Bright-field TEM imaging was performed on a FEI Tecnai 12 TWIN Transmission Electron Microscope and all TEM images were required by a SIS Megaview III wide-angle CCD camera.

[3] = target: T1, pure mAb1 (Homo sapiens, UniProt P01857); assay: Sequential precipitation and mAb elution using IF solutions
T1 construct: host or cells: CHO is stated only for the clarified harvest
Procedure: Sequential Precipitation and mAb Elution Using IF Solutions. Three IF stock solutions. IF1 (2.5 mM filler, 250 μM O16). IF2 (2.5 mM filler, 750 μM O16), and IF3 (2.5 mM filler. 200 μM O16), were prepared one day before the precipitation experiment. Pure mAb1 from a concentrated solution (448 μM, 64.5 g/L) was added into 100 uL IF1 and 100 uL IF2 to reach a desired final concentration of 40 μM and 80 μM, respectively. After a 4-hour incubation, the samples were then centrifuged at 15000 rpm for 15 minutes and the supernatant was transferred to 100 uL IF3 for another 4-hour incubation and subsequent centrifugation. 200 μL PBS and 400 μL elution buffer (40 mM sodium acetate. pH 3.7) were then used to wash and resuspend the precipitates from the two precipitation steps. The supernatant from each precipitation step, wash step, and elution step were analyzed by ProA-HPLC (POROS™ A 20 μm Column, Stainless Steel, 2.1×30 mm, 0.1 mL) to determine mAb concentration.

[4] = target: T2, mAb1 in clarified CHO cell culture harvest (Homo sapiens, UniProt P01857); assay: Purification of mAb1 from clarified cell culture harvest; details: sequential precipitation, no salt
T2 construct: host or cells: Chinese hamster ovary (CHO) cells; harvest clarified by depth filtration
Procedure: Purification of mAb1 from Clarified Cell Culture Harvest. mAb1 at clarified bulk state were incubated with optimized IFs (100 μL) at a concentration of 40 μM or 80 μM for 30 minutes. Same procedures were performed to precipitate mAb1 and obtain the centrifuged pellets. The pellets were then resuspended in […] (400 μL, 40 mM sodium acetate. pH 3.7) and transferred to a dialysis tube (Pur-A-Lyzer Maxi, 50 kDa cut-off molecular weight. Sigma-Aldrich. St. Louis, MO. USA). The resuspended solution was then dialyzed against 40 mM sodium acetate (1 L) at pH 3.7 for 24 hours with dialysis buffer replaced three times. The protein, filler, and ligand concentrations were determined by ProA-HPLC and RP-UPLC.

[5] = target: T1, pure mAb1; assay: Sequential precipitation of high mAb titers using lyophilized IFs; details: lyophilized IFs (2.5 mM filler, 400 μM O16); for mAb precipitation yield after six precipitation steps: no salt
Procedure: Sequential Precipitation of High mAb Titers Using Lyophilized IFs. Six lyophilized IF stock powders (IF4-IF9) were prepared such that upon dissolution in 100 μL, the concentrations of the filler and O16 would be 2.5 mM and 400 μM, respectively. Lyophilized IF powders were prepared one day before the precipitation experiment. The IFs were allowed to co-assemble in water for 24 hours prior to lyophilization. Pure mAb1 from concentrated stock solutions of either (146 μM, 21 g/L) or (215 μM, 31 g/L) was added to the lyophilized IF4. After a 1-hour incubation, the samples were centrifuged at 15000 rpm for 15 minutes. Following centrifugation, the volume of supernatant was measured and fresh PBS was added until a final supernatant volume of 100 μL was reached. The 100 μL supernatant following the first precipitation step was then added to the next lyophilized IF stock powder (IF5) and allowed to incubate for another hour. This process of incubation, centrifugation, and supernatant transfer was repeated until all six lyophilized IFs (IF4-IF9) had been used for mAb precipitation. The supernatants after the first, third, and sixth precipitation steps were analyzed using ProA-HPLC to measure the cumulative amount of mAbs remaining throughout the precipitation process.

[6] = target: T3, mAb1 (Homo sapiens, UniProt P01857); assay: Turbidity of mAb1-IF mixture (absorbance at 350 nm); details: 40 μM mAb1, 2.5 mM filler, 250 μM O16, absorbance at 350 nm
T3 construct: host or cells: CHO is stated only for the clarified harvest

[7] = target: T1, pure mAb1; assay: mAb precipitation experiment with co-assembled IFs; details: 40 μM mAb1, 2.5 mM filler
[8] = target: T1, pure mAb1; assay: mAb precipitation experiment with co-assembled IFs; details: for mAb precipitation yield at optimal O16 concentration: 2.5 mM filler
Procedure: mAb Precipitation Experiment. IF stock solutions at desired filler and ligand concentrations were prepared one day before the precipitation experiment. In experimental groups, pure mAb1 from a concentrated solution (448 μM, 64.5 g/L) was then added into 100 μL IF solutions to reach a desired final concentration and incubated for 30 minutes at room temperature. The solution was then centrifuged at 15000 rpm for 15 minutes. For the 1M salt group, ammonium sulfate was added to the mAb-IF mixtures to reach a final concentration of 1M and incubated for another 30 minutes before centrifugation. The supernatant was taken out and analyzed by ProA-HPLC (POROS™ A 20 μm Column, Stainless Steel, 2.1×30 mm, 0.1 mL) to determine the protein concentrations. The precipitated amount of each species was calculated by subtracting the amount in the supernatant from the amount added. The precipitation yield was calculated by dividing […].

[9] = Solubility limit of filler molecule in PBS; type: physicochemical; details: in PBS (pH 7.4)

T1 sequence (P01857 1-330 isoform P01857-1): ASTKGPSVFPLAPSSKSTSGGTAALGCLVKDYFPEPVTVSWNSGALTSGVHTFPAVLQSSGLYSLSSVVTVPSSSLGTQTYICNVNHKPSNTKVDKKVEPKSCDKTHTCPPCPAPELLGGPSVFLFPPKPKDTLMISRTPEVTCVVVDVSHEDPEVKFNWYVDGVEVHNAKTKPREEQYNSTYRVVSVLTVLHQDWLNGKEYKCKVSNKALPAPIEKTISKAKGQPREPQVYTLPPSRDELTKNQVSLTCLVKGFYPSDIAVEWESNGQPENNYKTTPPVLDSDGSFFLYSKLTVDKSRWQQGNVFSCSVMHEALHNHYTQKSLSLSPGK
T2 sequence (P01857 1-330 isoform P01857-1): as above
T3 sequence (P01857 1-330 isoform P01857-1): as above

Compound: O12: ligand molecule C12-VVKK[Linker]Z33, linker OEG12
- CMC [1]: 8.5 µM
- diameter of self-assembled filamentous structures (TEM) [2]: 13.6±1.2 nm

Compound: P2000: ligand molecule C12-VVKK[Linker]Z33, linker PEG2000
- CMC [1]: 8.1 µM
- diameter of self-assembled filamentous structures (TEM) [2]: 19.3±2.0 nm

Further lines, with some results ahead:

- mAb1 precipitated in first precipitation ([3]; 40 μM pure mAb1, IFs with 250 μM O16, no salt): More than 82%
- elution yield ([3]; 40 μM pure mAb1, elution buffer 40 mM sodium acetate pH 3.7): ~88%
- final precipitation yield after two sequential precipitations ([3]; 40 μM pure mAb1, second step IFs with 200 μM O16, no salt): greater than 97%
- mAb1 precipitated in first precipitation ([3]; 80 μM pure mAb1, IFs with 750 μM O16, no salt): More than 82%
- elution yield ([3]; 80 μM pure mAb1, elution buffer 40 mM sodium acetate pH 3.7): ~88%
- final precipitation yield after two sequential precipitations ([3]; 80 μM pure mAb1, second step IFs with 200 μM O16, no salt): greater than 97%
- mAb1 precipitation yield from clarified cell culture harvest ([4]; 40 μM mAb1 CB): more than 86%
- mAb1 precipitation yield from clarified cell culture harvest ([4]; 80 μM mAb1 CB): > 90%
- mAb precipitation yield after six precipitation steps ([5]; 21 mg/mL pure mAb): 96%
- mAb precipitation yield after six precipitation steps ([5]; 31 mg/ml pure mAb): 98%
- mAb precipitation yield after first precipitation step ([5]; 21 or 31 mg/mL mAb): around 20%
- mAb precipitation yield after three precipitation steps ([5]; 21 or 31 mg/mL mAb): ~80%
- time to turbidity plateau [6]: ≤ 30 min
- mAb precipitation yield ([7]; 250 μM O16, binding time 2 hours): 88%
- mAb precipitation yield ([7]; 250 μM O16, binding time 24 hours): 92%
- mAb precipitation yield ([8]; 40 μM mAb1, 2.5 mM filler, 250 μM O16, binding time 30 minutes): 83%
- mAb precipitation yield at optimal O16 concentration ([8]; 40 μM mAb1, no salt): around 85%
- mAb precipitation yield ([8]; 40 μM mAb1, optimal IFs (2.5 mM filler, 250 μM O16), 1 M salt): More than 99%
- mAb precipitation yield ([8]; 40 μM mAb1, optimal IFs (2.5 mM filler, 250 μM O16), no salt): 88%
- mAb precipitation yield at optimal O16 concentration ([8]; 80 μM mAb1, no salt): around 85%
- mAb precipitation yield at optimal O16 concentration ([8]; 133 μM mAb1, no salt): about 65%
- O16 concentration giving the best mAb precipitation yield ([8]; 100 μL mAb1 at 10 μM and 20 μM with 100 μL IFs): 200 µM
Compound: O16: ligand molecule C12-VVKK[Linker]Z33, linker OEG16
- CMC [1]: 10.5 µM
- diameter of self-assembled filamentous structures (TEM) [2]: 14.9±1.3 nm

- solubility [9]: 2500 µM (≈ 1640 µg/mL)
Compound: CCCCCCCCCCCC(=O)N[C@H](C(=O)N[C@H](C(=O)N[C@@H](CCC(=O)O)C(=O)N[C@@H](CCC(=O)O)C(=O)O)C(C)C)C(C)C [C12-VVEE] (Lauroyl-VVEE-OH; N-terminus and C-terminus assumed)

- yield discrepancy between 1M salt and no salt groups ([8]; 20 μM mAb1, 2.5 mM filler, 100 μM ligand): less than 10%
Compound: O36: ligand molecule C12-VVKK[Linker]Z33, linker OEG36
- CMC [1]: 9.1 µM
- diameter of self-assembled filamentous structures (TEM) [2]: 18.5±1.8 nm
- mAb precipitation yield, ranking among ligands ([8]; all conditions (20 and 40 μM mAb1, 1 M salt or no salt)): best mAb precipitation yields in all conditions
